The text below walks through data of US7943295B2, “Screening and therapeutic method for NSCLC targeting CDCA1-KNTC2 complex” (Oncotherapy Science, Inc., priority 2005, dated 2011).

In one series the target is T1, endogenous KNTC2 (Homo sapiens, UniProt O14777).
T1 construct: endogenous in cells; host or cells: LC319
T1 sequence (O14777 1-642): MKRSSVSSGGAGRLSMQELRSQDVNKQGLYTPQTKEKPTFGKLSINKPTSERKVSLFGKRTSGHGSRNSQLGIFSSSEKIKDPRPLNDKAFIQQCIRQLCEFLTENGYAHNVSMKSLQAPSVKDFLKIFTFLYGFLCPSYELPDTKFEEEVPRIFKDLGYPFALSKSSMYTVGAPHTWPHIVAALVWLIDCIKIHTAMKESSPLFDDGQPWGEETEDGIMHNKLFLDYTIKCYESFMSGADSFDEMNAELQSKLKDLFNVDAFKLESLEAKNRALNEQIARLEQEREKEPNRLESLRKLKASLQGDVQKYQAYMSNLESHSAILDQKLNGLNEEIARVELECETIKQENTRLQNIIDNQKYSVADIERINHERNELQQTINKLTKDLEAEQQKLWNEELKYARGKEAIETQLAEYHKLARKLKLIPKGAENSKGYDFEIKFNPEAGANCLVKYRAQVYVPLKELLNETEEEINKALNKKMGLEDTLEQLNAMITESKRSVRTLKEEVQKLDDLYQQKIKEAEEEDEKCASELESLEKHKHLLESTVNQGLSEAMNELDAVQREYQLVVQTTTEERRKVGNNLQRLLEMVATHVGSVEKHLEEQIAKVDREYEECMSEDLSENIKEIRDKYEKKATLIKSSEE
Description: Immunoprecipitation of FLAG-tagged CDCA1 deletion-constructs in LC319 cells. As to conditions: LC319 cells transfected with deletion-construct. The format is binding. As for the experimental part:
(g) Identification of the KNTC2-binding region in CDCA1: Eleven deletion-constructs of CDCA1 (CDCA1 200-464, CDCA1 149-464, CDCA11-348, CDCA11-148, CDCA1 149-306, CDCA1 306-464, CDCA1 319-464, CDCA1 277-416, CDCA1 277-367, CDCA1 319-416, and CDCA1 319-367) were cloned into appropriate sites of C-terminal FLAG-tagged-pCAGGS vector. Cell extracts from lung-cancer cell line LC319, transfected with plasmids expressing eleven deletion-constructs of CDCA1 were pre-cleared by incubation at 4° C. for 1 hour with 100 μl of protein G-agarose beads in final volumes of 2 ml of immunoprecipitation buffer (0.5% NP-40, 50 mM Tris-HCl, 150 mM NaCl) in the presence of proteinase inhibitor. After centrifugation at 1,000 rpm for 5 min at 4° C., the supernatants were incubated at 4° C. with anti-FLAG M2 agarose for 2 hours. After the beads were collected from each sample by centrifugation at 5,000 rpm for 2 min and washed six times with 1 ml of immunoprecipitation buffer, the washed beads were re-suspended in 50 μl of Laemmli sample buffer and boiled for 5 min before the proteins were separated on 10% SDS PAGE gels. Immunoblot was performed using KNTC2 polyclonal antibody (Abcom, Inc.) and anti-FLAG M2 monoclonal antibody respectively (Sigma-Aldrich Co.).

In a further series the test system is MRC5 cells. The experiment in a line: MTT assay, 11R-peptides on normal lung fibroblasts. It counts as cell-based. The settings on record: normal human lung fibroblast derived MRC5 cells, hardly detectable CDCA1 and KNTC2. How it is done:
(m) Effect of 11R-peptides on lung-cancer cell growth: LC319 and […] and normal human lung fibroblast derived MRC5 cells were incubated with 11R-peptides at the concentration of 5 μM, 10 μM, and 20 μM for seven days. The medium was exchanged every other day at the appropriate concentrations of each peptide and the viability of cells was evaluated by MTT assay at 7 days after the treatment; briefly, cell-counting kit-8 solution (DOJINDO, Kumamoto, Japan) was added to each dish at a concentration of 1/10 volume, and the plates were incubated at 37° C. for additional 4 hours. Absorbance was then measured at 490 nm, and at 630 nm as a reference, with a Microplate Reader 550 (BIO-RAD). Flow-cytometric analysis was performed as described previously (Suzuki, C. et al. Cancer Res. 65, 11314-11325 (2005).).

Series [1] can be described thus: Mouse model: body weight and food intake. It counts as in vivo, BALB/c nude mice. The settings on record: intratumoral 0.15 μmol/body/day for 7 weeks, among three treatment groups, data not shown. How it is done: (n) Mouse model: The animal experiments were conducted according to the institutional and national guidelines for the care and use of laboratory animals, and approved by the institutional animal use committee. 1×10^6 of A549 cells were subcutaneously implanted into the right shoulder of 6-week-old male BALB/c nude mice (nu/nu). Two weeks after the injection, the mice with tumor (30 mm^3 volume on average) were randomized into three groups and intratumorly administered with 11R-CDCA1398-416 peptides (0.15 μmol/body/day), scramble (0.15 μmol/body/day), or PBS (control) for 7 weeks. Tumor volume was measured once a day by using a caliper and applying the data to the formula (volume=0.52×[width]^2×[length]) to calculate the volume of a spheroid.

The target of a further series is T2, CDCA1-KNTC2 complex (Homo sapiens, UniProt O14777).
T2 construct: full length) and endogenous KNTC2; expressed in transfected cells; host or cells: LC319
T2 sequence (O14777 1-642): T1 sequence (O14777 1-642)
Description: Immunoprecipitation: suppression of CDCA1-KNTC2 complex formation in LC319 cells. It counts as binding. The settings on record: LC319 cells co-transfected with CDCA1 1-464 and the fragment. As for the experimental part:
(f) Identification of CDCA1-associated Proteins: Cell extracts from lung-cancer cell line LC319 were pre-cleared by incubation at 4° C. for 1 hour with 50 μl of protein A and G-agarose beads, in final volumes of 2 ml of immunoprecipitation buffer (0.5% NP-40, 50 mM Tris-HCl, 150 mM NaCl) in the presence of proteinase inhibitor. After centrifugation at 1,000 rpm for 5 min at 4° C., the supernatants were incubated at 4° C. with anti-CDCA1 polyclonal antibody, anti-KNTC2 polyclonal antibody, or normal rabbit IgG for 2 hours. […] The nucleotide sequence of each cDNA clone was determined with an ABI Prism 3700 DNA sequencer (Applied Biosystems, Foster City, Calif.), using T3, T7, or synthetic oligonucleotide primers according to the manufacturer's instructions. […]
Since the band of endogenous CDCA1 immunoprecipitated with anti-CDCA1/KNTC2 antibody overlapped with IgG-heavy chain bands, it was difficult to detect the interaction between endogenous CDCA1 and KNTC2. […] Interaction of only CDCA1 1-464 (full length) or CDCA1 200-464 with endogenous KNTC2 was detected by immunoprecipitation using anti-KNTC2 polyclonal antibody (FIG. 5A; left top panel; black and white arrows). […]

Another series relates to LC319 cells. The experiment in a line: MTT assay after transfection of dominant-negative CDCA1 fragment. It counts as cell-based, human. As to conditions: LC319 transfected with fragment plasmid; P=0.0026 CDCA1 200-464 vs CDCA1 149-306.

“Also recorded” adds a separate entry of the source. Where no end group is shown, it is not given here.

Turning to “CDCA1 319-367: C-terminal FLAG-tagged deletion-construct of CDCA1 (NLEDQIESDESELKKLKTEENSFKRLMIVKKEKLATAQFKINKKHEDVK-{FLAG tag})”, the “interaction with endogenous KNTC2” value with endogenous KNTC2 is “unable to interact”.

For “RRRRRRRRRRRGGGIQKIKLGIQQLKDAAEREK [11R-CDCA1 398-416]”, the “cell viability (MTT)” value with MRC5 cells is “no off-target effect”. Also, in series [1], the body weight entry is “no difference” and the food intake result was “no difference”.

B1: CDCA11-148: C-terminal FLAG-tagged deletion-construct of CDCA1 (protein)
chain: METLSFPRYNVAEIVIHIRNKILTGADGKNLTKNDLYPNPKPEVLHMIYMRALQIVYGIRLEHFYMMPVNSEVMYPHLMEGFLPFSNLVTHLDSFLPICRVNDFETADILCPKAKRTSRFLSGIINFIHFREACRETYMEFLWQYKSS
modifications: left off: small tags and cut ends
notes: C-terminal FLAG-tagged deletion-construct of CDCA1
For the molecule B1, the “interaction with endogenous KNTC2” value with endogenous KNTC2 was “unable to interact; also recorded: did not retain any appreciable ability to interact”.

B2: CDCA1 149-306: C-terminal FLAG-tagged deletion-construct of CDCA1, served as a control (protein)
chain: ADKMQQLNAAHQEALMKLERLDSVPVEEQEEFKQLSDGIQELQQSLNQDFHQKTIVLQEGNSQKKSNISEKTKRLNELKLLVVSLKEIQESLKTKIVDSPEKLKNYKEKMKDTVQKLKNARQEVVEKYEIYGDSVDCLPSCQLEVQLYQKKIQDLSDN
modifications: left off: small tags and cut ends
notes: C-terminal FLAG-tagged deletion-construct of CDCA1, served as a control
On to B2, for which the “interaction with endogenous KNTC2” value was “unable to interact” with endogenous KNTC2 and “did not retain any appreciable ability to interact” in the series with endogenous KNTC2 (listed as CDCA1149-306).

B3: CDCA1 200-464: C-terminal FLAG-tagged deletion-construct of CDCA1 lacking the N-terminal portion; dominant-negative fragment (protein)
chain: QKTIVLQEGNSQKKSNISEKTKRLNELKLLVVSLKEIQESLKTKIVDSPEKLKNYKEKMKDTVQKLKNARQEVVEKYEIYGDSVDCLPSCQLEVQLYQKKIQDLSDNREKLASILKESLNLEDQIESDESELKKLKTEENSFKRLMIVKKEKLATAQFKINKKHEDVKQYKRTVIEDCNKVQEKRGAVYERVTTINQEIQKIKLGIQQLKDAAEREKLKSQEIFLNLKTALEKYHDGIEKAAEDSYAKIDEKTAELKRKMFKMST
modifications: left off: small tags and cut ends
notes: C-terminal FLAG-tagged deletion-construct of CDCA1 lacking the N-terminal portion; dominant-negative fragment
Consider B3, for which the “interaction with endogenous KNTC2” value with endogenous KNTC2 was “strongest affinity; also recorded: Interaction”. Besides, the “complex formation between exogenous CDCA1 (full length) and endogenous KNTC2” value with CDCA1-KNTC2 complex was “reduced complex formation; also recorded: reduction of the complex formation”. Besides, the “cell viability (MTT)” value in the series with LC319 cells is “significant decreases; also recorded: dominant-negative effect”.

B4: CDCA1 277-367: C-terminal FLAG-tagged deletion-construct of CDCA1 (protein)
chain: EIYGDSVDCLPSCQLEVQLYQKKIQDLSDNREKLASILKESLNLEDQIESDESELKKLKTEENSFKRLMIVKKEKLATAQFKINKKHEDVK
modifications: left off: small tags and cut ends
Regarding B4, the “interaction with endogenous KNTC2” value with endogenous KNTC2 was “unable to interact”.
